We go through two molecules from patent publication US20240368249A1 (INTERVET, published 2024).

In assay [1] the target is T1, canine IL-4 (canine, UniProt O77762 25-132, biotin-labeled in the OCTET assay).
T1 sequence (looked up): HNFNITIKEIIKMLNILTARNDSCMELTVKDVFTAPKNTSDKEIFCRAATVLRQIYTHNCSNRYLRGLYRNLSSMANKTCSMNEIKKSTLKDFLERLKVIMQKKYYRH
The assay is described as follows: cell-based or functional assay.

The target in assay [2] is T1, canine IL-4. The assay is described as follows: BLI (OCTET HTX), biotin-cIL-4 on SA biosensors. The method, then:
(§1) The binding constants for the cFc fusion proteins provided in Tables 3 and 4 below, were determined using OCTET® HTX. All kinetics measurements were performed by OCTET® HTX using SA® biosensors and DATA ACQUISITION® 12.0 software. 10 μg/mL of biotin-labeled antigen, either canine IL-4 (cIL-4) or canine IL-13 (cIL-13) were loaded onto the SA® biosensors for 120 seconds. Next, the biosensors were placed into 1×pH 7.0 TBS/Casein buffer for 60 seconds for the blocking phase. For the association phase, antigen loaded biosensors were placed into 2-fold serial dilutions from 1 μM down to 15.6 nM of the wild-type, the bispecific, or the FcRn-mutant receptor Fc-fusions that recognized the cIL-4 or cIL-13 antigen in 1×pH 7.0 TBS/Casein buffer for 30 seconds. The last well was buffer alone and that sensor was used for reference sensor subtraction. Finally, the biosensors were placed into 1×pH 7.0 TBS/Casein buffer for 120 seconds for the dissociation phase. The results were then analyzed using Data Analysis 12.0 software and the curves were fitted using a 1:1 binding model.

Another assay has as its target T2, canine IL-13 (canine, UniProt Q9N0W9 19-131, limits assumed, biotin-labeled in the OCTET assay).
T2 construct: also called cIL-13; canine Interleukin-13
T2 sequence (looked up): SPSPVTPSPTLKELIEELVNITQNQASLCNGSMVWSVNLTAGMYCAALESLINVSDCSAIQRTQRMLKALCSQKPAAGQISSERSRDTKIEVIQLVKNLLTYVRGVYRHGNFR
The assay is described as follows: BLI (OCTET HTX), biotin-cIL-13 on SA biosensors. The method, then:
as §1

B1: cIL-4Rα-13Rα2_ZW1-cFc (Fc fusion)
chain 1: VKVLHEPSCFSDYISTSVCQWKMDHPTNCSAELRLSYQLDFMGSENHTCVPENREDSVCVCSMPIDDAVEADVYQLDLWAGQQLLWSGSFQPSKHVKPRTPGNLTVHPNISHTWLLMWTNPYPTENHLHSELTYMVNVSNDNDPEDFKVYNVTYMGPTLRLAASTLKSGASYSARVRAWAQTYNSTWSDWSPSTTWLNYYEPWEQHLPPKRENGRVPRPPDCPKCPAPEMLGGPSVFIFPPKPKDTLLIARTPEVTCVVVDLDPEDPEVQISWFVDGKQMQTAKTQPREEQFNGTYRVVSVLPIGHQDWLKGKQFTCKVNNKALPSPIERTISKARGQAHQPSVYVYPPSREELSKNTVSLTCLIKDFFPPDIDVEWQSNGQQEPESKYRTTPPQLDEDGSYALVSKLSVDKSRWQRGDTFICAVMHEALHNHYTQESLSHSPGK
chain 2: SMLSNAEIKVNPPQDFEIVDPGYLGYLSLQWQPPLFPDNFKECTIEYELKYRNIDSENWKTIITKNLHYKDGFDLNKGIEAKINTLLPAQCTNGSEVRSSWAETTYWTSPQGNRETKIQDMDCVYYNWQYLVCSWKPGMGVHFDTNYQLFYWYEGLDHSAECTDYIKVNGKNMGCRFPYLESSDYKDFYICVNGSSESQPIRPSYFIFQLQNIVKPMPPDYLSLTVKNSEEINLKWNMPKGPIPAKCFIYEIEFTEDGTTWVTTTVENEIQITRTSNESQKLCFLVRSKVNIYCSDDGIWSEWSDEQCWKGDIWKETPKRENGRVPRPPDCPKCPAPEMLGGPSVFIFPPKPKDTLLIARTPEVTCVVVDLDPEDPEVQISWFVDGKQMQTAKTQPREEQFNGTYRVVSVLPIGHQDWLKGKQFTCKVNNKALPSPIERTISKARGQAHQPSVYVLPPSREELSKNTVSLLCLIKDFFPPDIDVEWQSNGQQEPESKYLTWPPQLDEDGSYFLYSKLSVDKSRWQRGDTFICAVMHEALHNHYTQESLSHSPGK
For B1, in the assay with canine IL-4 [1], the “IC50 for inhibition of cIL-4 mediated STAT6 phosphorylation in DH82 cells, against that of cIL4Rα-cFc or cIL4Rα-IL13Rα1_ZW1-cFc” value is > 3 orders of magnitude higher.

B2: cIL-4Rα-13Rα1_ZW1-cFc (Fc fusion)
chain 1: B1 chain 1
chain 2: GGVAAPTETQPPVTNLSVSVENLCTVIWTWDPPEGASPNCTLRYFSHFDNKQDKKIAPETHRSKEVPLNERICLQVGSQCSTNESDNPSILVEKCTPPPEGDPESAVTELQCVWHNLSYMKCTWLPGRNTSPDTNYTLYYWHSSLGKILQCEDIYREGQHIGCSFALTNLKDSSFEQHSVQIVVKDNAGKIRPSFNIVPLTSHVKPDPPHIKRLFFQNGNLYVQWKNPQNFYSRCLSYQVEVNNSQTETNDIFYVEEAKCQNSEFEGNLEGTICFMVPGVLPDTLNTVRIRVRTNKLCYEDDKLWSNWSQAMSIGENTDPTPKRENGRVPRPPDCPKCPAPEMLGGPSVFIFPPKPKDTLLIARTPEVTCVVVDLDPEDPEVQISWFVDGKQMQTAKTQPREEQFNGTYRVVSVLPIGHQDWLKGKQFTCKVNNKALPSPIERTISKARGQAHQPSVYVLPPSREELSKNTVSLLCLIKDFFPPDIDVEWQSNGQQEPESKYLTWPPQLDEDGSYFLYSKLSVDKSRWQRGDTFICAVMHEALHNHYTQESLSHSPGK
notes: Bispecific heterodimer; also called cIL4Rα-IL13Rα1_ZW1-cFc; cIL-4Rα-IL-13Rα1_ZW1-cFc
Consider B2, for which the “fold change of KD against the unmodified cIL-4Rα-cFc homodimer” value in the assay with canine IL-4 [2] is ~10000 fold higher. The “fold tighter binding against the unmodified IL-13Rα1-cFc” value with canine IL-13 came out at 8 fold tighter.
